Where “and” joins values, the source holds several entries; their conditions need not be identical. Identical values can stand only once. Like-named read-outs stand apart in the source and are kept apart here.
Legend:
[1] = biological target: T1, human BR3 extracellular domain (human, UniProt Q96RJ3 1-61); assay: SPR, IgG on chip, BR3 ECD in solution
T1 construct: biotinylated where used as tracer; also called hBR3-ECD; BR3-ECD

[2] = biological target: T2, mouse BR3 extracellular domain (mouse, UniProt Q9D8D0 1-64); assay: SPR, IgG on chip, BR3 ECD in solution
T2 construct: also called mBR3-ECD; mBR-ECD
T2 sequence: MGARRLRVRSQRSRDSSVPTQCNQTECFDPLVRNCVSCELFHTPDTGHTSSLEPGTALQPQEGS

[3] = biological target: T1, human BR3 extracellular domain; assay: SPR BIAcore-3000, Fab
From the text: (§1) Surface plasmon resonance assays on a BIAcore™-3000 were used to determine the affinity of the Fabs.

[4] = biological target: T2, mouse BR3 extracellular domain; assay: SPR BIAcore-3000, Fab
From the text: as §1

[5] = biological target: T2, mouse BR3 extracellular domain; assay: SPR BIAcore-2000, mBR3-ECD on chip, Fab injected
From the text: (§2) Biacore measurement Surface plasmon resonance assays on a BIAcore™-2000 were used to determine the affinity of anti-BR3 Fabs. […] For kinetics analysis, 1:1 Languir model of simultaneous fitting of kₒₙ and koff was used.

[6] = biological target: T1, human BR3 extracellular domain; assay: SPR BIAcore-2000, hBR3-ECD on chip, Fab injected
From the text: as §2

[7] = biological target: T1, human BR3 extracellular domain; assay: F(ab)'2 phage solution binding competition ELISA
Method: (§3) Third, a competition ELISA was performed. […] The wells were blocked by adding 65 ul 1% BSA for 30 minutes followed by 40 ul 1% Tween20 for another 30 minutes. The wells were washed with PBS—0.05% Tween20 5 times. […] The wells of the second plate were washed with PBS—0.5% Tween20 at least three times. 75 ul of HRP-conjugated anti-M13 antibody (1/5000 dilution with ELISA buffer) per well was added and incubated at room temperature for 30 minutes. The wells were washed again with PBS—0.05% Tween20 at least five times.

[8] = biological target: T2, mouse BR3 extracellular domain; assay: F(ab)'2 phage solution binding competition ELISA
Method: as §3

[9] = biological target: T1, human BR3 extracellular domain; assay: phage competition ELISA
[10] = biological target: T2, mouse BR3 extracellular domain; assay: phage competition ELISA
[11] = biological target: T3, human BR3 expressed on cells (human, UniProt Q96RJ3 1-184); assay: BJAB cells, competition with biotin-BAFF
T3 construct: whole, on cells; also called BR3 on BJAB cells; cell surface BR3
Method: (§4) The diluted samples were added to the pelleted BJAB cells in 96 well plates as described above. After 45 min incubation on ice, the cells were washed twice with 200 μl cold assay buffer, and streptavidin-HRP (AMDEX, Amersham Biosciences, Piscataway, N.J.) diluted 1/5,000 in assay buffer was added (100 μl/well). The plates were incubated for a final 45 min on ice. After washing twice with cold assay buffer, color was developed using TMB, the reaction was stopped with H₃PO₄, and the plates were read as described above.

[12] = biological target: T1, human BR3 extracellular domain; assay: SPR, BR3 ECD on chip;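 note: Anti-BR3 antibodies passed over the chip at high flow in PBS with 0.05% polysorbate 20, on and off rates fitted together globally to a 1:1 binding model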
[13] = biological target: T1, human BR3 extracellular domain; assay: BIAcore, Fab over immobilised target
Method: (§5) Each sample was analysed with 2-minute association and 20-minute dissociation. After each injection the chip was regenerated using 10 mM Glycine pH 1.5. Binding response was corrected by subtracting the RU from a blank flow cell. A 1:1 Languir model of simultaneous fitting of kₒₙ and koff was used for kinetics analysis.

[14] = biological target: T4, variant human BR3-Fc fusion; assay: BIAcore, Fab over immobilised target
T4 construct: produced in CHO cells; also called vBR3-Fc; vhBR3-Fc
Method: as §5

[15] = biological target: T4, variant human BR3-Fc fusion; assay: SPR, vBR3-Fc on chip;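 note: Anti-BR3 antibodies passed over chip-bound BR3-Fc in PBS with 0.05% polysorbate 20, on and off rates fitted together globally to a 1:1 binding model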
Method: After coupling, unoccupied sites on the chip were blocked by injecting 20 μl of 1M ethanolamine, pH 8.5. The running buffer was PBS containing 0.05% polysorbate 20. […] The binding surface was regenerated by injecting 20-30 μl of 10 mM glycine.HCl (pH 1.5). […] Data were analyzed using a 1:1 binding model using global fitting. The association and dissociation rate constants were fitted simultaneously (BIAevaluation software).
A high flow rate was used in order to minimize mass transport effects.

[16] = biological target: T3, human BR3 expressed on cells; assay: BJAB cells, direct binding
Method: Direct and competitive binding assays were performed as follows. For the direct binding assay, IgG antibody samples were serially diluted in cold assay buffer to concentrations ranging between 300-0.02 nM. Samples (100 μl) were added to the pelleted cells, and the plates were incubated for 45 min on ice. An additional 100 μl assay buffer was then added to each well, and the plates were centrifuged at 1200 rpm for 5 min at 4° C. After carefully aspirating the supernatant, the cells were washed two additional times with 200 μl assay buffer. An anti-mouse IgG Fc-HRP or goat anti-human IgG Fc-HRP, as appropriate, was diluted 1/10,000 in cold assay buffer was added (100 μl/well, Jackson ImmunoResearch, West Grove, Pa.), and the plates were incubated on ice for 45 min. Following two washes with 200 μl cold assay buffer, tetramethyl benzidine (TMB, Kirkegaard & Perry Laboratories, Gaithersburg, Md.) was added, and color was allowed to develop for 10 min. One hundred microliters 1 M H₃PO₄ was added to stop the reaction. The plates were then read on a microplate reader at 450 nm with a 620 nm reference. In the direct binding assay, the indicated concentrations of mAbs were added to BJAB cells and bound mAb was detected.

[17] = biological target: T3, human BR3 expressed on cells; assay: BJAB cells, competition with biotin-BAFF; remark: listed apart in the source
Method: as §4

B1: mV3-46 IgG (antibody, V domains shown)
VH: EVQLVESGGGLVQPGGSLRLSCAASGFTISNSSIHWVRQAPGKGLEWVAWVLPSVGFTDYADSVKGRFTISADTSKNTAYLQMNSLRAEDTAVYYCARRVCYNRLGVCAGGMDYWGQGTLVTVSS
VL: DIQMTQSPSSLSASVGDRVTITCRASQDVSTAVAWYQQKPGKAPKLLIYSASFLYSGVPSRFSGSGSGTDFTLTISSLQPEDFATYYCQQSQISPPTFGQGTKVEIKR
notes: IgG on chip
Kd [1]: 0.24 nM
koff [1]: 7.31e-05 s⁻¹
kon [1]: 300000 M⁻¹ s⁻¹
Kd [2]: 1.17 nM
koff [2]: 0.00014 s⁻¹
kon [2]: 119000 M⁻¹ s⁻¹

B2: V3-46s Fab (Fab, V domains shown)
VH: EVQLVESGGGLVQPGGSLRLSCAASGFTISSSSIHWVRQAPGKGLEWVAWVLPSVGFTDYADSVKGRFTISADTSKNTAYLQMNSLRAEDTAVYYCARRVCYNRLGVCAGGMDYWGQGTLVTVSS
VL: DIQMTQSPSSLSASVGDRVTITCRASQDVSTAVAWYQQKPGKAPKLLIYSASFLYSGVPSRFSGSGSGTDFTLTISSLQPEDFATYYCQQSQISPPTFGQGTKVEIKR
notes: N31S mutant of V3-46; also called V46s; N31S
Kd [3]: 0.6 nM
koff [3]: 8.6e-05 s⁻¹
kon [3]: 140000 M⁻¹ s⁻¹
Kd [4]: 1 nM
koff [4]: 0.00027 s⁻¹
kon [4]: 270000 M⁻¹ s⁻¹
Kd [5]: 1 nM
koff [5]: 0.00027 s⁻¹
kon [5]: 270000 M⁻¹ s⁻¹
Kd [6]: 0.6 nM
koff [6]: 8.6e-05 s⁻¹
kon [6]: 140000 M⁻¹ s⁻¹

B3: 44 (Fab, V domains shown)
VH: EVQLVESGGGLVQPGGSLRLSCAASGFTITGSYIHWVRQAPGKGLEWVAWIYPDGGYTDYADSVKGRFTISADTSKNTAYLQMNSLRAEDTAVYYCASKPAGPFGYWGQGTLVTVSS
VL: DIQMTQSPSSLSASVGDRVTITCRASQDVSTAVAWYQQKPGKAPKLLIYSASFLYSGVPSRFSGSGSGTDFTLTISSLQPEDFATYYCQQSYTTPPTFGQGTKVEIKR
notes: also called V44; clone 44
binding result [7]: no binding
IC50 [8]: 1500 nM

B4: V3-46s-9 Fab (Fab, V domains shown)
VH: EVQLVESGGGLVQPGGSLRLSCAASGFTISSSSIHWVRQAPGKGLEWVAWVLPSVGFTDYADSVKGRFTISADTSKNTAYLQMNSLRAEDTAVYYCARRVCYNRLGVCAGGMDYWGQGTLVTVSS
VL: DIQMTQSPSSLSASVGDRVTITCRASEDISTAVAWYQQKPGKAPKLLIFAASYLYSGVPSRFSGSGSGTDFTLTISSLQPEDFATYYCQQSQISPPTFGQGTKVEIK
notes: soluble Fab in SPR; also called V46s-9
Kd [3]: 0.09 nM
koff [3]: 1.6e-05 s⁻¹
kon [3]: 160000 M⁻¹ s⁻¹
Kd [4]: 0.32 nM
koff [4]: 0.00015 s⁻¹
kon [4]: 470000 M⁻¹ s⁻¹
IC50 [9]: 0.053 nM
IC50 [10]: 0.182 nM

B5: V3-1h (antibody, human IgG1, V domains shown)
VH: EVQLVESGGGLVQPGGSLRLSCAASGFTISSNSIHWVRQAPGKGLEWVAWITPSDGNTDYADSVKGRFTISADTSKNTAYLQMNSLRAEDTAVYYCARRVCYNRLGVCAGGMDYWGQGTLVTVSS
VL: DIQMTQSPSSLSASVGDRVTITCRASQDVSTAVAWYQQKPGKAPKLLIYSASFLYSGVPSRFSGSGSGTDFTLTISSLQPEDFATYYCQQSRITPPTFGQGTKVEIKR
IC50 [11]: 5.97 nM

B6: 51 (Fab, V domains shown)
VH: EVQLVESGGGLVQPGGSLRLSCAASGFTISSTGIHWVRQAPGKGLEWVGGISPSSGSTNYADSVKGRFTISADTSKNTAYLQMNSLRAEDTAVYYCARRKVVSSHVTNKYVMDYWGQGTLVTVSS
VL: DIQMTQSPSSLSASVGDRVTITCRASQDVSTAVAWYQQKPGKAPKLLIYSASFLYSGVPSRFSGSGSGTDFTLTISSLQPEDFATYYCQQSYTTPPTFGQGTKVEIKR
notes: also called V51; clone 51
binding result [7]: binds
binding result [8]: no binding

B7: mV3-46s IgG (antibody, V domains shown)
VH: EVQLVESGGGLVQPGGSLRLSCAASGFTISSSSIHWVRQAPGKGLEWVAWVLPSVGFTDYADSVKGRFTISADTSKNTAYLQMNSLRAEDTAVYYCARRVCYNRLGVCAGGMDYWGQGTLVTVSS
VL: DIQMTQSPSSLSASVGDRVTITCRASQDVSTAVAWYQQKPGKAPKLLIYSASFLYSGVPSRFSGSGSGTDFTLTISSLQPEDFATYYCQQSQISPPTFGQGTKVEIKR
notes: IgG on chip
Kd [1]: 0.02 nM
koff [1]: 3.18e-05 s⁻¹
kon [1]: 1.57e+06 M⁻¹ s⁻¹
Kd [2]: 0.32 nM
koff [2]: 9.51e-05 s⁻¹
kon [2]: 298000 M⁻¹ s⁻¹

B8: chimeric 11G9 Fab (Fab, V domains shown)
VH: DVQLQESGPSLVKPSQTLSLTCSVTGDSITSGYWNWIRKFPGNKLEYMGYISYSGSTYYNPSLKSRISITRDTSKNQFYLQLLSVTTEDTATYYCAGLDGLYWYFDVWGAGTLVTVSS
VL: DIVMTQTPLSLPVSLGDQASISCRSSQSLVHSNGNTYLHWYLQKPGQSPKLLIYKVSNRFSGVPDRFSGSGSGTDFTLKISRVEAEDLGVYFCSQSTHVPPFTFGSGT
notes: Fab with murine variable domains; also called Ch 11G9 Fab
Kd [12]: 19.5 nM and 23.5 nM
koff [12]: 0.0233 s⁻¹ and 0.0263 s⁻¹
kon [12]: 1.2e+06 M⁻¹ s⁻¹ and 1.12e+06 M⁻¹ s⁻¹
Kd [13]: 21.5 nM
Kd [14]: > 100 nM

B9: chimeric 11G9 IgG (antibody, V domains shown)
VH: DVQLQESGPSLVKPSQTLSLTCSVTGDSITSGYWNWIRKFPGNKLEYMGYISYSGSTYYNPSLKSRISITRDTSKNQFYLQLLSVTTEDTATYYCAGLDGLYWYFDVWGAGTLVTVSS
VL: DIVMTQTPLSLPVSLGDQASISCRSSQSLVHSNGNTYLHWYLQKPGQSPKLLIYKVSNRFSGVPDRFSGSGSGTDFTLKISRVEAEDLGVYFCSQSTHVPPFTFGSGT
notes: also called Ch 11G9 IgG
Kd [12]: 0.34 nM
koff [12]: 0.000549 s⁻¹
kon [12]: 1.64e+06 M⁻¹ s⁻¹
Kd [15]: 2.78 nM
koff [15]: 0.00218 s⁻¹
kon [15]: 780000 M⁻¹ s⁻¹
IC50 [11]: 0.45 nM

B10: Hu9.1-73 Fab (Fab, V domains shown)
VH: EVQLVESGGGLVQPGGSLRLSCAASGLPMAGFYTSWVRQAPGKGLEWVGFIRDKANGYTTEYNPSVKGRFTISADTSKNTAYLQMNSLRAEDTAVYYCAQVRRALDYWGQGTLVTVSS
VL: DIQMTQSPSSLSASVGDRVTITCKSSQSLLYSSNQNNYLAWYQQKPGKAPKLLIYWAQHLDSGVPSRFSGSGSGTDFTLTISSLQPEDFATYYCQQYYTYPYTFGQGTKVEIKR
notes: Fab expressed in E. coli
Kd [12]: 0.31 nM and 0.32 nM
koff [12]: 0.000174 s⁻¹ and 0.000175 s⁻¹
kon [12]: 560000 M⁻¹ s⁻¹ and 550000 M⁻¹ s⁻¹
Kd [15]: 0.43 nM and 0.48 nM
koff [15]: 0.000215 s⁻¹ and 0.000225 s⁻¹
kon [15]: 500000 M⁻¹ s⁻¹ and 470000 M⁻¹ s⁻¹
Kd [14]: 0.45 nM

B11: Hu9.1-88 Fab (Fab, V domains shown)
VH: EVQLVESGGGLVQPGGSLRLSCAASGFPVTGSYVSWVRQAPGKGLEWVGFIRDKANGYTTEYNPSVKGRFTISRDTSKNTLYLQMNSLRAEDTAVYYCAQVRRALDYWGQGTLVTVSS
VL: DIQMTQSPSSLSASVGDRVTITCKSSQSLLYSSNQNNYLAWYQQKPGKAPKLLIYWASTRESGVPSRFSGSGSGTDFTLTISSLQPEDFATYYCQQYYTYPYTFGQGTKVEIKR
notes: Fab
Kd [12]: 0.736 nM
koff [12]: 0.00101 s⁻¹
kon [12]: 1.37e+06 M⁻¹ s⁻¹
Kd [15]: 1.37 nM
koff [15]: 0.000742 s⁻¹
kon [15]: 541000 M⁻¹ s⁻¹
Kd [13]: 6.3 nM
Kd [14]: 11 nM

B12: chimeric 2.1 Fab (Fab, V domains shown)
VH: EVQLQESGPSLVKPSQTLSLTCSVTGDSITRGYWNWIRKFPGNKLEFMGYINYSGTTYYNPSLKSRISITRDTSKNQYYLQLNSVTTEDTATYYCATPHTYGAMDYWGQGTTLTVSA
VL: DIVLTQSPVSLAVSLGQRATISCRASESVDDYGISFMHWYQQKPGQPPKLLIYRASDLESGIPARFSGSGSGTDFTLTINPVETDDVAIYYCQQTSKDPWTFGGGT
notes: Fab with murine variable domains; also called Ch 2.1 Fab
Kd [12]: 0.12 nM and 0.11 nM
koff [12]: 0.000271 s⁻¹ and 0.000294 s⁻¹
kon [12]: 2.25e+06 M⁻¹ s⁻¹ and 2.65e+06 M⁻¹ s⁻¹
Kd ([15]; 140 RU BR3-Fc immobilized): 1.12 nM
koff ([15]; 140 RU BR3-Fc immobilized): 0.00148 s⁻¹
kon ([15]; 140 RU BR3-Fc immobilized): 1.32e+06 M⁻¹ s⁻¹
Kd ([15]; 220 RU BR3-Fc immobilized): 0.92 nM
koff ([15]; 220 RU BR3-Fc immobilized): 0.00145 s⁻¹
kon ([15]; 220 RU BR3-Fc immobilized): 1.58e+06 M⁻¹ s⁻¹
Kd [13]: 0.115 nM

B13: chimeric 2.1 IgG (antibody, V domains shown)
VH: EVQLQESGPSLVKPSQTLSLTCSVTGDSITRGYWNWIRKFPGNKLEFMGYINYSGTTYYNPSLKSRISITRDTSKNQYYLQLNSVTTEDTATYYCATPHTYGAMDYWGQGTTLTVSA
VL: DIVLTQSPVSLAVSLGQRATISCRASESVDDYGISFMHWYQQKPGQPPKLLIYRASDLESGIPARFSGSGSGTDFTLTINPVETDDVAIYYCQQTSKDPWTFGGGT
notes: also called Ch 2.1 IgG; ch 2.1
Kd [12]: 0.04 nM
koff [12]: 6.8e-05 s⁻¹
kon [12]: 1.68e+06 M⁻¹ s⁻¹
Kd [15]: 0.04 nM
koff [15]: 3.8e-05 s⁻¹
kon [15]: 980000 M⁻¹ s⁻¹
EC50 [16]: 0.14 nM
IC50 [11]: 0.23 nM
IC50 [17]: 0.2 nM

— patent US20100280227A1 (Genentech, published 2010)
